Marks after values point to notes of the source that are not given here.
How the values were obtained:
[1] = test system: mAb 806 binding to immobilized 287-302 EGFR peptide; assay: BIAcore, soluble EGFR peptides blocking mAb […] binding; set-up: species or system human; conditions: mAb […] 500 nM; soluble peptide 5 and 10 μM; amine coupling
Experimental: Analysis of mAb 806 binding to peptides by BIAcore. […] Binding affinity was then determined by Scatchard analysis (insert).
A BIAcore 3000 was used for all experiments. The peptides containing the putative mAb 806 epitope were immobilised on a CM5 sensor chip using amine or thiol-disulphide exchange coupling at a flow rate of 5 μl/min (34). The 806 antibody was passed over the sensor surface at a flow rate of 5 μl/min at 25° C. The surfaces were generated between runs by injecting 10 mM HCl at a flow rate of 10 μl/min.

[2] = test system: mAb 806 binding to immobilized 501-Fc; assay: ELISA, peptide inhibition of mAb […] binding to 501-Fc; set-up: species or system human; conditions: increasing concentrations of peptide
[3] = test system: mAb 806 binding to immobilized 1-501 EGFR fragment; assay: ELISA, peptide inhibition of mAb […] binding to 1-501 EGFR; set-up: species or system human; conditions: peptide in solution, increasing concentrations
wt-EGFR = target: T1, wt-EGFR (Homo sapiens, UniProt P00533); assay: Scatchard analysis of 125I-EGF binding, BaF/3 wt-EGFR
T1 construct: […]; expressed in transfected cells
Experimental: (§1) Single point mutations of the wild-type EGFR were generated using a site-directed mutagenesis kit (Stratagene, La Jolla, Calif.). The template for each mutagenesis was the human EGFR cDNA; (24)) containing the leader sequence followed by a FLAG tag coding sequence, in the mammalian expression vector pcDNA3 (Invitrogen, Carlsbad, Calif.) as described in (4). The automated nucleotide sequencing of each construct was performed to confirm the integrity of each EGF receptor mutation. EGFR expression constructs were transiently expressed in 293 cells (American Type Culture Collection, Manassas, Va.) and the presence of receptor protein determined by staining with 528 and M2 antibodies to confirm expression at the cell surface and to ensure protein folding occurred appropriately (data not shown).
(§2) Wild-type and mutant EGFRs constructs were transfected into the IL-3-dependent murine hemopoietic cell line BaF/3 as described previously (25). Transfected cells were selected in G418 for 10 days. Viable cells were screened for EGFR expression by FACS analysis on a FACStar (Beckton and Dickinson, Franklin Lakes, N.J.) using antibodies to the flag tag (M2: 10 μg/ml in PBS/5% FCS/5 mMEDTA) and/or to the EGFR extracellular domain (mAb528: 10 μg/ml in PBS/5% FCS/5 mMEDTA) followed by Alexa 488-labelled anti-mouse Ig (1:400 final dilution). Background fluorescence was determined by incubating the cells with an irrelevant, class matched primary antibody. Positive pools were sorted for the appropriate level of EGFR expression on a FACS-DIVA (Becton and Dickinson). After final selection, mRNA was isolated from each cell line and all mutations in the EGFR were confirmed by PCR annalysis. All cells were routinely passaged in RPMI/10% FCS/10% WEHI3B conditioned medium (26) and 1.5 mg/ml G418.
(§3) Murine EGF, purified from mouse submaxillary glands (27), was iodinated using Iodogen (28) to a specific activity of 5-8×10^5 cpm/pmol. Ligand binding to cells expressing the wt or mutant EGFR was determined at room temperature in the presence of the […] (PAO) (29) by cold saturation experiments. Briefly, cells were incubated in PBS/1% BSA/30 μM PAO with or without increasing amounts of unlabelled EGF (20 pM-5.12 nM) and with a constant amount (300 pM) of ^125I EGF. Non-specific binding was determined using a 500-fold excess of unlabelled EGF over ^125I-EGF. All experimental points were prepared in triplicate. At the end of the incubation, the cells were pelleted and washed twice in ice-cold PBS before transferring to fresh tubes for counting in a Wallac WIZARD γ-counter (PerkinElmer, Boston, Mass.). Scatchard plots and estimates of ligand binding affinities and receptor numbers were obtained using the Radlig program (BioSoft, Cambridge, UK).

Y^246W EGFR = target: T2, Y^246W EGFR (Homo sapiens, UniProt P00533, Y270W); assay: Scatchard analysis of 125I-EGF binding, BaF/3 Y246W; conditions: BaF/3 Y^246W
T2 construct: expressed in transfected cells
Experimental: as §1
as §2, with “All cells were routinely passaged in RPMI/10% FCS/10% WEHI3B conditioned medium (26) and 1.5 mg/ml G418.” left out
(§4) Murine EGF, purified from mouse submaxillary glands (27), was iodinated using Iodogen (28) to a specific activity of 5-8×10^5 cpm/pmol. Ligand binding to cells expressing the wt or mutant EGFR was determined at room temperature in the presence of the […] […] Non-specific binding was determined using a 500-fold excess of unlabelled EGF over ^125I-EGF. […]

V^583D EGFR = target: T3, V^583D EGFR (Homo sapiens, UniProt P00533, V607D); assay: Scatchard analysis of 125I-EGF binding, BaF/3 V583D; conditions: BaF/3 V^583D
T3 construct: expressed in transfected cells
Experimental: as §1, §2, §3

L^245C/E^578C EGFR = target: T4, L^245C/E^578C EGFR (Homo sapiens, UniProt P00533, E602C/L269C); assay: Scatchard analysis of 125I-EGF binding, BaF/3 L245C/E578C; conditions: BaF/3 L^245C/E^578C; less than 10% of number by FACS or immunoblotting
T4 construct: expressed in transfected cells
Experimental: as §1
(§5) Wild-type and mutant EGFRs constructs were transfected into the IL-3-dependent murine hemopoietic cell line BaF/3 as described previously (25). […] Background fluorescence was determined by incubating the cells with an irrelevant, class matched primary antibody. […]
as §4

Y^246F EGFR = target: T5, Y^246F EGFR (Homo sapiens, UniProt P00533, Y270F); assay: Scatchard analysis of 125I-EGF binding, BaF/3 Y246F; conditions: BaF/3 Y^246F
T5 construct: expressed in transfected cells
Experimental: as §1
as §2, with “All cells were routinely passaged in RPMI/10% FCS/10% WEHI3B conditioned medium (26) and 1.5 mg/ml G418.” left out
as §4

Y^246D EGFR = target: T6, Y^246D EGFR (Homo sapiens, UniProt P00533, Y270D); assay: Scatchard analysis of 125I-EGF binding, BaF/3 Y246D; conditions: BaF/3 Y^246D
T6 construct: expressed in transfected cells
Experimental: as §1
as §2, with “All cells were routinely passaged in RPMI/10% FCS/10% WEHI3B conditioned medium (26) and 1.5 mg/ml G418.” left out
as §4

E^578C EGFR = target: T7, E^578C EGFR (Homo sapiens, UniProt P00533, E602C); assay: Scatchard analysis of 125I-EGF binding, BaF/3 E578C; conditions: BaF/3 E^578C
T7 construct: expressed in transfected cells
Experimental: as §1, §5, §4

D^563H EGFR = target: T8, D^563H EGFR (Homo sapiens, UniProt P00533, D587H); assay: Scatchard analysis of 125I-EGF binding, BaF/3 D563H; conditions: BaF/3 D^563H
T8 construct: expressed in transfected cells
Experimental: as §1, §2, §3

mAb 806 = assay: Binding of yeast surface displayed EGFR 273-621 point mutants to mAb […] (flow cytometry); set-up: species or system mouse; key: ++ indicates wild type binding; +, intermediate binding; −, binding equal to negative control; conditions: 75 nM 806
Experimental: Out of 100 clones sequenced, roughly 20% contained multiple mutations and were omitted from subsequent analysis. […] All mutations are localized to the disulfide-bonded loop between cysteines 287 and 302, as has been previously determined (34). […] To verify the results from the fine epitope mapping library, alanine scanning through site-directed mutagenesis (SDM) was performed on the entire loop 287-302 (TABLE 7, right column). All sites with loss of binding by alanine scanning (287, 293, 298, and 302) correspond to mutants isolated from the library. […] Since an average of 6-7 amino acid substitutions are accessible by single nucleotide mutagenesis, a larger range of physicochemical diversity can be sampled compared to alanine scanning. […] The C287R substitution raises this dissociation constant to 127 nM (68% confidence interval of 103-160 nM), which gives a ΔΔG value of +2.4 kcal/mol when compared to wild-type and, in alanine scanning terms, is an intermediate loss of binding (36).
The epitope mapping library was constructed using the Stratagene GeneMorph® random mutagenesis kit to give a low mutagenesis rate. The template used for library construction was a pCT302 backbone containing EGFR fragment 273-621, with a C283A mutation to prevent disulfide mispairing, inserted for yeast display (27). The PCR products were gel purified and extracted using a Qiagen Qiaquick gel extraction kit. The library was transformed into Saccharomyces cerevisiae strain EBY100 (28) by electroporation (40) and homologous recombination (41) using a Bio-Rad (Richmond, Calif.) Gene Pulser Transfection Apparatus. […] Growth and expression of the library using yeast surface display was performed as previously described (28).
Anti-c-myc chicken IgY fraction was purchased from Molecular Probes (Eugene, Oreg.). An appropriate number of yeast cells (at least 10× library size) were washed with FACS buffer (phosphate buffered saline containing 1 mg/ml bovine serum albumin). The cells were incubated with 4 μg/ml anti-c-myc chicken IgY and the appropriate concentration of mAb for 30 min at 25° C. The cells were then washed with FACS buffer and incubated with 1:25 dilution phycoerythrin-labeled goat anti-mouse IgG (Sigma) and 1:100 dilution Alexa Fluor® 488 goat anti-chicken IgG (Molecular Probes) for 30 min at 4° C. The labeled cells were rinsed, and cell libraries were sorted using a MoFlo FACS machine at the MIT flow cytometry core facility.
Plasmids from the sorted library populations were recovered using Zymoprep™ and sequenced at the MIT Biopolymers Laboratory. Site-directed mutants were made using QuickChange® site-directed mutagenesis (Stratagene). Single clones were transformed into yeast using EZ Yeast Transformation (Zymo Research) and grown in minimal media (yeast nitrogen base, casein hydrolysate, dextrose, and phosphate buffer pH 7.4) overnight. Yeast surface protein expression was induced by transferring to minimal media with galactose and incubating overnight. For each clone, 1×10^6 cells were labeled as before with anti-c-myc chicken IgY, the appropriate mAb, and secondary fluorescent antibodies. Fluorescence data was obtained using a Coulter Epics XL flow cytometer (Beckman-Coulter) and was analyzed using DakoCytomation Summit™ software

[4] = high affinity sites, listed as 125I-EGF
[5] = EGFR Mutant (SDM) in loop 287-302, 273-621 on yeast
[6] = EGFR Mutant (Library), 273-621 on yeast

Substance: CGADSYEMEEDGVRK (epitope peptide) [287-301 EGFR peptide]
- inhibition of mAb […] binding to immobilized 287-302 EGFR peptide (BIAcore) [1]: weakly inhibit

Substance: CGADSYEM (epitope peptide) [N-terminal fragment from cyanogen bromide cleavage of the 287-302 peptide]
- inhibition of mAb […] binding to 501-Fc (ELISA) [2]: incapable of inhibiting

Substance: CGADSYEMEEDG (epitope peptide) [287-298 EGFR peptide]
- inhibition of mAb […] binding to immobilized 287-302 EGFR peptide (BIAcore) [1]: unable to prevent binding
- inhibition of mAb […] binding to immobilized 1-501 fragment (ELISA) [3]: did not inhibit

Substance: EGF: Murine EGF purified from mouse submaxillary glands, iodinated for binding; EGFR ligand
- R/cell (from Bmax) (wt-EGFR): 3.4 +/− 0.7 R/cell × 10^−4
- [EGF] at which 500R/cell are occupied (wt-EGFR; calculated from Kd and Bmax): ~15 pM
- % of sites (Kd1) (wt-EGFR; [4]): 2.6 +/− 0.4%
- % of sites (Kd2) (wt-EGFR; low affinity sites): 97.5 +/− 0.49%
- % of sites (Kd2) (Y^246W EGFR): (100) %
- R/cell (from Bmax) (Y^246W EGFR): 2.9 +/− 0.2 R/cell × 10^−4
- [EGF] at which 500R/cell are occupied (Y^246W EGFR; calculated from Kd and Bmax): ~60 pM
- R/cell (from Bmax) (V^583D EGFR): 3.8 +/− 0.71 R/cell × 10^−4
- [EGF] at which 500R/cell are occupied (V^583D EGFR; calculated from Kd and Bmax): <1 pM
- % of sites (Kd1) (V^583D EGFR; [4]): 12.6 +/− 4%
- % of sites (Kd2) (V^583D EGFR; low affinity sites): 90.8 +/− 1.9%
- R/cell (from Bmax) (L^245C/E^578C EGFR): 0.37 +/− 0.002^b R/cell × 10^−4
- % of sites (Kd2) (Y^246F EGFR): (100) %
- R/cell (from Bmax) (Y^246F EGFR): 3.0 +/− 0.2 R/cell × 10^−4
- [EGF] at which 500R/cell are occupied (Y^246F EGFR; calculated from Kd and Bmax): 30 pM
- % of sites (Kd2) (Y^246D EGFR): (100) %
- R/cell (from Bmax) (Y^246D EGFR): 1.2 +/− 0.1 R/cell × 10^−4
- [EGF] at which 500R/cell are occupied (Y^246D EGFR; calculated from Kd and Bmax): 400 pM
- R/cell (from Bmax) (E^578C EGFR): 3.45 +/− 0.12 R/cell × 10^−4
- [EGF] at which 500R/cell are occupied (E^578C EGFR; calculated from Kd and Bmax): ~80 pM
- R/cell (from Bmax) (D^563H EGFR): 2.3 +/− 0.8 R/cell × 10^−4
- [EGF] at which 500R/cell are occupied (D^563H EGFR; calculated from Kd and Bmax): 8 pM
- % of sites (Kd1) (D^563H EGFR; high affinity sites): 4.4 +/− 0.7) %
- % of sites (Kd2) (D^563H EGFR; low affinity sites): 96.4 +/− 0.7%

Substance: EEGVRKC (epitope peptide) [C-terminal (EEGVRKC), C-terminal fragment from cyanogen bromide cleavage of the 287-302 peptide]
- inhibition of mAb […] binding to 501-Fc (ELISA) [2]: incapable of inhibiting

Substance: C287A: yeast displayed EGFR 273-621 site-directed mutant
- mAb […] Binding (mAb 806; [5]): +

Substance: V299D: yeast displayed EGFR 273-621 site-directed mutant
- mAb […] Binding (mAb 806; [5]): −

Substance: C287R: yeast displayed EGFR 273-621 point mutant from library
- mAb […] Binding (mAb 806; [6]): +

Substance: C302S: yeast displayed EGFR 273-621 point mutant from library
- mAb […] Binding (mAb 806; [6]): −
